{"source": "paper PMC7948501", "about": "“Structure of transmembrane prolyl 4-hydroxylase reveals unique organization of EF and dioxygenase domains” (The Journal of Biological Chemistry, 2020)", "proteins": {"B1": {"name": "soluble human transmembrane prolyl 4-hydroxylase (P4H-TM), residues 88 to 502 with an N-terminal His-tag (enzyme, UniProt Q9NXG6-1 88-502, looked up)", "chain": "DESSDPGPQHRAQGPGPEPTLGPLTRLEGIKVGHERKVQLVTDRDHFIRTLSLKPLLFEIPGFLTDEECRLIIHLAQMKGLQRSQILPTEEYEEAMSTMQVSQLDLFRLLDQNRDGHLQLREVLAQTRLGNGWWMTPESIQEMYAAIKADPDGDGVLSLQEFSNMDLRDFHKYMRSHKAESSELVRNSHHTWLYQGEGAHHIMRAIRQRVLRLTRLSPEIVELSEPLQVVRYGEGGHYHAHVDSGPVYPETICSHTKLVANESVPFETSCRYMTVLFYLNNVTGGGETVFPVADNRTYDEMSLIQDDVDLRDTRRHCDKGNLRVKPQQGTAVFWYNYLPDGQGWVGDVDDYSLHGGCLVTRGTKWIANNWINVDPSRARQALFQQEMARLAREGGTDSQPEWALDRAYRDARVEL", "modifications": "N-linked glycans at Asn368 and Asn382", "notes": "human transmembrane prolyl 4-hydroxylase (P4H-TM), isoform 1 (502 residues), residues 88-502; lacks the short cytoplasmic region and the transmembrane helix; then six histidines and residues 88-502; Calculated mass 48.3 kDa; also called soluble part of human P4H-TM; isoform 1; not shown: His6, N-terminal, kept"}}, "molecular_target": "the molecule itself", "test": "SEC-SAXS; 7.4 mg/ml on Superdex 200 Increase 5/150, RT; 10 mM Tris HCl pH 7.8, 0.1 M NaCl, 0.1 M glycine, 1% glycerol, with and without 2 mM CaCl2; Bayesian molecular weight estimate", "data": [{"protein": "B1", "values": [{"measurement": "stoichiometry N", "value": 2}]}]}
